Results as given in patent EP4682168A1, “ANTI-LIV-1 ANTIBODY AND ANTI-LIV-1 ANTIBODY-DRUG CONJUGATE, AND PHARMACEUTICAL USE THEREOF” (priority 2023, dated 2024).

Key:
[1] = molecular target: T1, LIV-1 expressed on the cell surface of cancer cell lines (human) (UniProt Q13433); assay: flow cytometry, isotype control, HCC 1806 cells (endogenous LIV-1)
T1 sequence (looked up): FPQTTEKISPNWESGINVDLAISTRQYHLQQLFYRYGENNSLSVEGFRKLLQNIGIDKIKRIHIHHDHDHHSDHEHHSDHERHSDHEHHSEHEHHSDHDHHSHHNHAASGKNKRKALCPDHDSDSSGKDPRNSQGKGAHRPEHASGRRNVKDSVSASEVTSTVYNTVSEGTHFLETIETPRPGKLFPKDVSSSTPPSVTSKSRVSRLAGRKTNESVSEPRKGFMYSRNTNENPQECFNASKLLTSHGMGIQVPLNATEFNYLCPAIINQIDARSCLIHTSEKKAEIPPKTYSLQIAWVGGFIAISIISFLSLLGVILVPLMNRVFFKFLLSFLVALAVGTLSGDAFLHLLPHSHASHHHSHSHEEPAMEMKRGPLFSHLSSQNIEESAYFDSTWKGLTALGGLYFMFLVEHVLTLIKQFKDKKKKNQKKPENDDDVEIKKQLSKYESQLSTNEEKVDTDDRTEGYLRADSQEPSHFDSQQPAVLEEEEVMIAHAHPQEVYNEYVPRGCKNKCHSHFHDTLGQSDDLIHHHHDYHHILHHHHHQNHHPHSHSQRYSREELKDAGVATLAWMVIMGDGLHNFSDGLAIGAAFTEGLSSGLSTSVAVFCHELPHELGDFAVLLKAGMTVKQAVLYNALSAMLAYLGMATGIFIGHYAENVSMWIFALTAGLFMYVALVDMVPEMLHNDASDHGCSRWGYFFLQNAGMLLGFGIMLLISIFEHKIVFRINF

[2] = molecular target: T1, LIV-1 expressed on the cell surface of cancer cell lines (human); assay: flow cytometry, isotype control, MCF7-Liv1 #7 cells (high exogenous LIV-1)
[3] = molecular target: T1, LIV-1 expressed on the cell surface of cancer cell lines (human); assay: flow cytometry, isotype control, MCF7-Liv1 #12 cells (moderate exogenous LIV-1)
[4] = molecular target: T1, LIV-1 expressed on the cell surface of cancer cell lines (human); assay: flow cytometry, isotype control, Calu6 cells (endogenous LIV-1)
[5] = molecular target: T1, LIV-1 expressed on the cell surface of cancer cell lines (human); assay: flow cytometry, isotype control, MCF7-Liv1 #17 cells (high exogenous LIV-1)
[6] = molecular target: T1, LIV-1 expressed on the cell surface of cancer cell lines (human); assay: flow cytometry, isotype control, PC-3 cells (endogenous LIV-1)
[7] = molecular target: T1, LIV-1 expressed on the cell surface of cancer cell lines (human); assay: flow cytometry, antibody A against IgG1 isotype control, MCF7-Liv1 #12 cells
[8] = molecular target: T1, LIV-1 expressed on the cell surface of cancer cell lines (human); assay: flow cytometry, 10 µg/mL antibody, MCF7-Liv1 #17 cells (high exogenous LIV-1)
[9] = molecular target: T1, LIV-1 expressed on the cell surface of cancer cell lines (human); assay: flow cytometry, antibody A against IgG1 isotype control, PC-3 cells
[10] = molecular target: T1, LIV-1 expressed on the cell surface of cancer cell lines (human); assay: flow cytometry, antibody A against IgG1 isotype control, MCF7-Liv1 #7 cells
[11] = molecular target: T1, LIV-1 expressed on the cell surface of cancer cell lines (human); assay: flow cytometry, antibody A against IgG1 isotype control, Calu6 cells
[12] = molecular target: T1, LIV-1 expressed on the cell surface of cancer cell lines (human); assay: flow cytometry, antibody A against IgG1 isotype control, HCC 1806 cells
[13] = molecular target: T1, LIV-1 expressed on the cell surface of cancer cell lines (human); assay: flow cytometry, 10 µg/mL antibody, MCF7-Liv1 #12 cells (moderate exogenous LIV-1)
[14] = molecular target: T1, LIV-1 expressed on the cell surface of cancer cell lines (human); assay: flow cytometry, 10 µg/mL antibody, Calu6 cells (endogenous LIV-1)
[15] = molecular target: T1, LIV-1 expressed on the cell surface of cancer cell lines (human); assay: flow cytometry, 10 µg/mL antibody, MCF7-Liv1 #7 cells (high exogenous LIV-1)
[16] = molecular target: T1, LIV-1 expressed on the cell surface of cancer cell lines (human); assay: flow cytometry, 10 µg/mL antibody, HCC 1806 cells (endogenous LIV-1)
[17] = molecular target: T1, LIV-1 expressed on the cell surface of cancer cell lines (human); assay: flow cytometry, 10 µg/mL antibody, PC-3 cells (endogenous LIV-1)
[18] = molecular target: T1, LIV-1 expressed on the cell surface of cancer cell lines (human); assay: flow cytometry, antibody A against IgG1 isotype control, MCF7-Liv1 #17 cells
[19] = molecular target: human LIV-1 antigen (with a His tag, NP_036451.1, amino acids Phe229-Ile323) (human) (UniProt Q13433); assay: ForteBio (BLI)
[20] = molecular target: T2, LIV-1 expressed on the cell surface of cancer cell lines (human, UniProt Q13433 29-755); assay: cell-based or functional assay
T2 sequence (looked up): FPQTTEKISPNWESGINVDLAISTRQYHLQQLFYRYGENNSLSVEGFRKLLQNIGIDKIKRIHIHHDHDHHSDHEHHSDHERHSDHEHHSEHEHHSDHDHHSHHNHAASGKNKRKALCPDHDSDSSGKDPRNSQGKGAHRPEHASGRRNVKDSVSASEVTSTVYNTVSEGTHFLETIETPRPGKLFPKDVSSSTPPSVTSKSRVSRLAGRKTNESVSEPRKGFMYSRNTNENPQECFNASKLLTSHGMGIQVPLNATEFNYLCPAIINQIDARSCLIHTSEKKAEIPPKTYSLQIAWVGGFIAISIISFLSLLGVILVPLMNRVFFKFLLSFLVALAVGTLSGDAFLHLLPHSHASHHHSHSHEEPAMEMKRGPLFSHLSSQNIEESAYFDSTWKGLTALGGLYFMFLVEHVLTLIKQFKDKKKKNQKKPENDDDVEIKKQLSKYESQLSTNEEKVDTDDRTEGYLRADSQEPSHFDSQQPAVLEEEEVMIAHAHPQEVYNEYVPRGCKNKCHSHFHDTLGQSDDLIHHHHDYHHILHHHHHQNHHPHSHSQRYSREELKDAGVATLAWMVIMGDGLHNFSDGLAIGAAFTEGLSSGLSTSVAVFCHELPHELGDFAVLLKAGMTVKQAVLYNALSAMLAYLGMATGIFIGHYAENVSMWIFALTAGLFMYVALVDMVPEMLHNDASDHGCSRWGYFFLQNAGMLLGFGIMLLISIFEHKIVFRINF

[21] = system: PC3 mouse subcutaneous tumors; assay: PC3 prostate cancer xenograft efficacy study; type: in vivo, CD1 athymic nude mice; details: Single dose of 10 mg/kg, intravenous injection
Method: (§1) Tumor cells grown in the implantation culture of CD1 athymic nude mice: Calu-6 (2.5 × 10^6 cells in 50% matrigel) from ATCC, PC-3 (2.5 × 10^6 cells) from ATCC, and PA-1 (5 × 10^6 cells in 50% matrigel) from ATCC. Tumor cells grown in the implantation culture of NSG mice: HCC1806 (2.5 × 10^6 cells in 50% matrigel) from ATCC and MCF-7 (10 × 10^6 cells; for the in vivo growth of MCF-7, 8.5 µg/mL estradiol was added to the drinking water of female mice) from NCI.
(§2) When the tumors grew to 150 mm^3, the humanized LIV-1 ADC or the non-binding control ADC (1 mg/kg, 3 mg/kg, 6 mg/kg, or 10 mg/kg) was administered by intravenous injection once every four days for a total of four administrations (q4d × 4), by intravenous injection once every week for a total of 2 administrations (qw × 2), or by single intravenous injection. The tumor volume was monitored using a caliper, and the animals were euthanized when the tumor volume reached about 2000 mm^3. Tumor volume plots were continued for each group until one or more animals were euthanized. All animal procedures were conducted in a facility approved by the Association for Assessment and Accreditation of Laboratory Animal Care in accordance with protocols approved by the Institutional Animal Care and Use Committee. TGI was calculated as follows: TGI (%) = 1−[(Td−T0)/(Cd−C0)] × 100% [formula] […]

[22] = system: PA-1 mouse subcutaneous tumors; assay: PA-1 ovarian cancer xenograft efficacy study; type: in vivo, CD1 athymic nude mice; details: Single dose of 3 mg/kg, intravenous injection
Method: as §1, §2

**Q.** With “non-specific isotype control commercial antibody IgG (BioXCell, BE0297)” as the molecule, how does the MFI (RFU) [1] read?
**A.** 2180 RFU

**Q.** And the MFI (RFU) [2]?
**A.** 3410 RFU

**Q.** What about the MFI (RFU) [3] of the same molecule?
**A.** 3120 RFU

**Q.** What about the MFI (RFU) [4] of the same molecule?
**A.** 4440 RFU

**Q.** What about the MFI (RFU) [5] of the same molecule?
**A.** 1510 RFU

**Q.** And the MFI (RFU) [6]?
**A.** 2840 RFU

B1: Antibody A (antibody, human IgG1, kappa, V domains shown)
VH: EVQLVQSGAEVKKPGATVKISCKASGLNIEDYYMHWVQQAPGKGLEWMGWIDPENGDTEYAEKFQGRVTITADTSTNTAYMELSSLRSEDTAVYYCTVHNAHYGTWFAYWGQGTTVTVSS
VL: DIVMTQTPLSLSVTPGQPASISCRSSQTLVRSDGNTYLEWYLQKPGQSPQLLIYRVSNRFSGVPDRFSGSGSGTDFTLKISRVEAEDVGVYYCFQGSHVPYTFGGGTKLEIKR
**Q.** For B1, which MFI ratio (MFI of anti-LIV-1/MFI of control antibody) [7] is on record?
**A.** 6.7

**Q.** What about the MFI (RFU) [8] of the same molecule?
**A.** 107000 RFU

**Q.** And the MFI ratio (MFI of anti-LIV-1/MFI of control antibody) [9]?
**A.** 2

**Q.** What about the MFI ratio (MFI of anti-LIV-1/MFI of control antibody) [10] of the same molecule?
**A.** 38.7

**Q.** What about the MFI ratio (MFI of anti-LIV-1/MFI of control antibody) [11] of the same molecule?
**A.** 2.5

**Q.** What about the MFI ratio (MFI of anti-LIV-1/MFI of control antibody) [12] of the same molecule?
**A.** 2

**Q.** And the MFI (RFU) [13]?
**A.** 20900 RFU

**Q.** And the MFI (RFU) [14]?
**A.** 11100 RFU

**Q.** What about the MFI (RFU) [15] of the same molecule?
**A.** 132000 RFU

**Q.** And the MFI (RFU) [16]?
**A.** 4420 RFU

**Q.** What about the MFI (RFU) [17] of the same molecule?
**A.** 5660 RFU

**Q.** And the MFI ratio (MFI of anti-LIV-1/MFI of control antibody) [18]?
**A.** 71.1

B2: Antibody A-1 (antibody, human IgG1, kappa, V domains shown)
VH: EVQLVQSGAEVKKPGATVKISCKASGLNIEDYYMHWVQQAPGKGLEWMGWIDPENGDTEYAEKFQGRVTITADTSTDTAYMELSSLRSEDTAVYYCTVHNAHYGTWFAYWGQGTTVTVSS
VL: DIVMTQTPLSLSVTPGQPASISCRSSQTLVRSDGNTYLEWYLQKPGQSPQLLIYRVSNRFSGVPDRFSGSGSGTDFTLKISRVEAEDVGVYYCFQGSHVPYTFGGGTKLEIKR
**Q.** Which Kd [19] does the source give for B2 here?
**A.** 0.0524 nM

**Q.** And the koff [19]?
**A.** 4.17e-05 s⁻¹

**Q.** And the kon [19]?
**A.** 796000 M⁻¹ s⁻¹

B3: A-BrAcMMAE (antibody, human IgG1, kappa, V domains shown)
VH: EVQLVQSGAEVKKPGATVKISCKASGLNIEDYYMHWVQQAPGKGLEWMGWIDPENGDTEYAEKFQGRVTITADTSTNTAYMELSSLRSEDTAVYYCTVHNAHYGTWFAYWGQGTTVTVSS
VL: DIVMTQTPLSLSVTPGQPASISCRSSQTLVRSDGNTYLEWYLQKPGQSPQLLIYRVSNRFSGVPDRFSGSGSGTDFTLKISRVEAEDVGVYYCFQGSHVPYTFGGGTKLEIKR
modifications: MMAE drug-linker (compound 11, bromoacetyl-Val-Cit-PAB-MMAE) on reduced cysteine sulfhydryls; average DAR 3.5-4; positions not given
**Q.** How did the “IC50 (nM) for inhibition of proliferation, Calu6 cells, CellTiterGlo2” value [20] turn out when B3 was run?
**A.** 11 nM

**Q.** And the “IC50 (nM) for inhibition of proliferation, MCF7-Liv1 #7 cells, CellTiterGlo2” value [20]?
**A.** 0.03 nM

**Q.** And the “IC50 (nM) for inhibition of proliferation, MCF7-Liv1 #12 cells, CellTiterGlo2” value [20]?
**A.** 0.031 nM

**Q.** What about the “IC50 (nM) for inhibition of proliferation, MCF7-Liv1 #17 cells, CellTiterGlo2” value [20] of the same molecule?
**A.** 0.05 nM

B4: L-McMMAE: Ladiratuzumab antibody L conjugated to MC-MMAE, DAR of 3.5-4; prior-art ADC targeting Liv-1 (conjugate, chains of the INN, looked up)
VH: QVQLVQSGAEVKKPGASVKVSCKASGLTIEDYYMHWVRQAPGQGLEWMGWIDPENGDTEYGPKFQGRVTMTRDTSINTAYMELSRLRSDDTAVYYCAVHNAHYGTWFAYWGQGTLVTVSS
VL: DVVMTQSPLSLPVTLGQPASISCRSSQSLLHSSGNTYLEWYQQRPGQSPRPLIYKISTRFSGVPDRFSGSGSGTDFTLKISRVEAEDVGVYYCFQGSHVPYTFGGGTKVEIK
modifications: MC-MMAE payload
**Q.** How did the “Tumor growth inhibition rate TGI% (day 24 after administration)” value [21] turn out when B4 was run?
**A.** 103.92%

**Q.** And the “Tumor growth inhibition rate TGI% (day 13 after administration)” value [22]?
**A.** 26.68%
